In publication PMC10988713:
Residue numbers refer to the chain shown, from its start. Names may count otherwise.

B1: BCDE (Rattus norvegicus) (protein)
chain: ASGQAKALQYAFFAEKSANKWSTPSGASWKTASAQPVSSVGVLGLGTMGRGIAISFARVGISVVAVESDPKQLDAAKKIITFTLEKEASRAHQNGQASAKPKLRFSSSTKELSTVDLVVEAVFEDMNLKKKVFAELSALCKPGAFLCTNTSALNVDDIASSTDRPQLVIGTHFFSPAHVMRLLEVIPSRYSSPTTIATVMSLSKKIGKIGVVVGNCYGFVGNRMLAPYYNQGFFLLEEGSKPEDVDGVLEEFGFKMGPFRVSDLAGLDVGWKIRKGQGLTGPSLPPGTPVRKRGNSRYSPLGDMLCEAGRFGQKTGKGWYQYDKPLGRIHKPDPWLSTFLSQYREVHHIEQRTISKEEILERCLYSLINEAFRILEEGMAARPEHIDVIYLHGYGWPRHKGGPMFYAASVGLPTVLEKLQKYYRQNPDIPQLEPSDYLRRLVAQGSPPLKEWQSLAGPHGSKL
notes: truncated RnMFE1 from Ala260 (ASGQ) to the C-terminus, without domain A (ECH part); N-terminal His6 tag, E. coli BL21(DE3) pLysS
B2: HsHAD (Homo sapiens) (protein)
chain: SSSSTASASAKKIIVKHVTVIGGGLMGAGIAQVAAATGHTVVLVDQTEDILAKSKKGIEESLRKVAKKKFAENLKAGDEFVEKTLSTIATSTDAASVVHSTDLVVEAIVENLKVKNELFKRLDKFAAEHTIFASNTSSLQITSIANATTRQDRFAGLHFFNPVPVMKLVEVIKTPMTSQKTFESLVDFSKALGKHPVSCKDTPGFIVNRLLVPYLMEAIRLYERGDASKEDIDTAMKLGAGYPMGPFELLDYVGLDTTKFIVDGWHEMDAENPLHQPSPSLNKLVAENKFGKKTGEGFYKYK
notes: N-terminal His6 tag in pET28a, E. coli BL21(DE3) pLysS, dimer of 35 kDa subunits
B3: RnMFE1 (Rattus norvegicus) (protein)
chain: MAEYLRLPHSLAMIRLCNPPVNAVSPTVIREVRNGLQKAGSDHTVKAIVICGANGNFCAGADIHGFSAFTPGLALGSLVDEIQRYQKPVLAAIQGVALGGGLELALGCHYRIANAKARVGLPEVTLGILPGARGTQLLPRVVGVPVALDLITSGKYLSADEALRLGILDAVVKSDPVEEAIKFAQKIIDKPIEPRRIFNKPVPSLPNMDSVFAEAIAKVRKQYPGVLAPETCVRSIQASVKHPYEVGIKEEEKLFMYLRASGQAKALQYAFFAEKSANKWSTPSGASWKTASAQPVSSVGVLGLGTMGRGIAISFARVGISVVAVESDPKQLDAAKKIITFTLEKEASRAHQNGQASAKPKLRFSSSTKELSTVDLVVEAVFEDMNLKKKVFAELSALCKPGAFLCTNTSALNVDDIASSTDRPQLVIGTHFFSPAHVMRLLEVIPSRYSSPTTIATVMSLSKKIGKIGVVVGNCYGFVGNRMLAPYYNQGFFLLEEGSKPEDVDGVLEEFGFKMGPFRVSDLAGLDVGWKIRKGQGLTGPSLPPGTPVRKRGNSRYSPLGDMLCEAGRFGQKTGKGWYQYDKPLGRIHKPDPWLSTFLSQYREVHHIEQRTISKEEILERCLYSLINEAFRILEEGMAARPEHIDVIYLHGYGWPRHKGGPMFYAASVGLPTVLEKLQKYYRQNPDIPQLEPSDYLRRLVAQGSPPLKEWQSLAGPHGSKL
B4: RnMFE1 (Rattus norvegicus; E123A) (protein)
chain: B3 chain with E123A

Experiments:
[1] = substrate: C[C@H](O)CC(=O)SCCNC(=O)CCNC(=O)[C@H](O)C(C)(C)COP(=O)(O)OP(=O)(O)OC[C@H]1O[C@@H](n2cnc3c(N)ncnc32)[C@H](O)[C@@H]1OP(=O)(O)O; test: purified protein; assay type: biochemical, Rattus norvegicus; details: 1 mM NAD+, pH 9.0, 50 mM Tris, 50 mM KCl, 25 °C, HAD dehydrogenase reaction
[2] = substrate: C[C@H](O)CC(=O)SCCNC(=O)CCNC(=O)[C@H](O)C(C)(C)COP(=O)(O)OP(=O)(O)OC[C@H]1O[C@@H](n2cnc3c(N)ncnc32)[C@H](O)[C@@H]1OP(=O)(O)O; test: purified protein; assay type: biochemical, Homo sapiens; details: 1 mM NAD+, pH 9.0, 50 mM Tris, 50 mM KCl, 25 °C

Protein	Km [1] [µM]	kcat [1] [s⁻¹]	Km [2] [µM]	kcat [2] [s⁻¹]
B1	5.2 ± 0.9	1.6 ± 0.1	–	–
B2	–	–	19 ± 0.9	42 ± 2
B3	11 ± 2	1.9 ± 0.3	–	–
B4	10 ± 0.6	2.4 ± 0.1	–	–
